The target in one experiment is HLA-A*01:01. The experiment is described as follows: IEDB peptide-MHC binding, purified MHC/direct/fluorescence; filed as Kd, often an IC50 or EC50 that approximates it; ≥ and ≤ were set here for values at or beyond the usual limits of such assays. The settings on record: source organism: SARS-CoV1.
For another experiment, the target named is HLA-A*02:11. Described as above.
Another experiment concerns the target HLA-A*23:01. Kind of experiment: IEDB peptide-MHC binding, purified MHC/competitive/radioactivity; filed as Kd, often an IC50 or EC50 that approximates it; ≥ and ≤ were set here for values at or beyond the usual limits of such assays. The settings on record: source organism: SARS coronavirus Tor2.
The target in experiment [1] is HLA-A*24:02. The description is as above. To be noted: source organism: SARS coronavirus Tor2.
For a further experiment, the target named is HLA-A*26:01. The description is as above. To be noted: source organism: SARS coronavirus Tor2.
For a further experiment, the target named is HLA-A*29:02. The description is as above. To be noted: source organism: SARS coronavirus Tor2.
The target of the next experiment is HLA-A*30:02. The experiment is described as above. The settings on record: source organism: SARS coronavirus Tor2.
A further experiment addresses HLA-A*03:01. Kind of experiment: IEDB peptide-MHC binding, purified MHC/competitive/fluorescence; filed as Kd, often an IC50 or EC50 that approximates it; ≥ and ≤ were set here for values at or beyond the usual limits of such assays.
The target of a further experiment is HLA-A*02:01. The experiment is described as follows: IEDB peptide-MHC binding, purified MHC/competitive/fluorescence; ≥ and ≤ were set here for values at or beyond the usual limits of such assays.
The target of the next experiment is HLA-A*11:01. The experiment is described as above.
The target of another experiment is HLA-B*15:01. Kind of experiment: IEDB peptide-MHC binding, purified MHC/competitive/fluorescence; filed as Kd, often an IC50 or EC50 that approximates it; ≥ and ≤ were set here for values at or beyond the usual limits of such assays. The settings on record: source organism: Yersinia pestis Antiqua.
The next experiment has as its target HLA-B*07:02. Kind of experiment: IEDB peptide-MHC binding, purified MHC/competitive/radioactivity; filed as Kd, often an IC50 or EC50 that approximates it; ≥ and ≤ were set here for values at or beyond the usual limits of such assays.
In the next experiment the target is HLA-B*35:01. The description is as above.
For the next experiment, the target named is HLA-B*51:01. Described as above.
The target of a further experiment is HLA-B*53:01. The description is as above.
The target in a further experiment is HLA-B*54:01. Described as above.
Experiment [2] concerns the target HLA-A*24:02. The experiment is described as follows: IEDB peptide-MHC binding, purified MHC/competitive/fluorescence; ≥ and ≤ were set here for values at or beyond the usual limits of such assays. To be noted: source organism: Sudan ebolavirus.
For another experiment, the target named is HLA-A*02:03. Kind of experiment: IEDB peptide-MHC binding, purified MHC/direct/fluorescence; filed as Kd, often an IC50 or EC50 that approximates it; ≥ and ≤ were set here for values at or beyond the usual limits of such assays. To be noted: source organism: Mycobacterium tuberculosis str. Haarlem.
For the next experiment, the target named is HLA-A*02:12. Described as above. To be noted: source organism: Mycobacterium tuberculosis str. Haarlem.
A further experiment concerns the target HLA-A*69:01. Described as above. To be noted: source organism: Mycobacterium tuberculosis.
The mark [3] stands for this setting: source organism: Zaire ebolavirus.
Where [4] appears, read: source organism: Vaccinia virus WR.
Where [5] appears, read: source organism: Sudan ebolavirus.
The mark [6] stands for this setting: source organism: SARS coronavirus Tor2.
Setting [7] is: source organism: Mammarenavirus whitewaterense.

For PVDEYITTY, the Kd (in general, the equilibrium constant for the complex coming apart) in the experiment with HLA-A*01:01 was 0.044 µM; in the experiment with HLA-A*02:11 (source organism: SARS-CoV1), no less than 20 µM; with HLA-A*23:01, no less than 77.8 µM; in the experiment with HLA-A*24:02 [1], no less than 77.6 µM; with HLA-A*26:01, 10.8 µM; in the experiment with HLA-A*29:02, 0.544 µM. Besides, the Kd with HLA-A*30:02 was 1.48 µM.

For YMFESKRMK, the Kd in the experiment with HLA-A*03:01 (source organism: Influenza A virus (A/swine/Finistere/127/99(H3N2))) came out at 0.0194 µM.

TPVYKLDIS: the IC50 (as a rule, the point on the concentration scale where inhibition reaches its midpoint) was no less than 170 µM in the experiment with HLA-A*02:01 (setting [3]) and 65.8 µM with HLA-A*11:01 (setting [3]).

Sequence VLTGGTGVG registered an IC50 with HLA-A*11:01 (source organism: Variola virus) of no less than 80.6 µM.

As for VLRRGALAH, the Kd with HLA-A*03:01 (source organism: Vibrio cholerae 2740-80) stood at 0.014 µM.

In the case of AMLDRILHH, the results for the Kd with HLA-A*03:01 (source organism: Yersinia pestis Antiqua) and with HLA-B*15:01 were 0.0095 µM and 6.16 µM, respectively.

In turn, HGEYAPFAR came in with an IC50 with HLA-A*11:01 (setting [3]) of 61.7 µM.

In the case of VVAFLILPQ, the IC50 with HLA-A*02:01 (setting [3]) is no less than 1420 µM; with HLA-A*11:01 (setting [3]), no less than 1240 µM.

In the experiment with HLA-A*03:01 (source organism: Bacillus thuringiensis str. Al Hakam), CLRIPMTDK yielded a Kd of 0.0529 µM.

Turning to EPSGNNYHIL, the Kd in the experiment with HLA-B*07:02 (setting [4]) was 1.67 µM; in the experiment with HLA-B*35:01 (setting [4]), 8.08 µM; with HLA-B*51:01 (setting [4]), no less than 69.6 µM; with HLA-B*53:01 (setting [4]), 2.96 µM; with HLA-B*54:01 (setting [4]) it was 15.5 µM.

Take DPGNPNCLEW: the Kd in the experiment with HLA-B*07:02 (setting [4]) was no less than 69.6 µM; with HLA-B*35:01 (setting [4]) it was no less than 56.5 µM; in the experiment with HLA-B*51:01 (setting [4]) it was no less than 69.6 µM; with HLA-B*53:01 (setting [4]), 0.00664 µM; in the experiment with HLA-B*54:01 (setting [4]), no less than 69.9 µM.

As for KPFNNILNLI, the Kd with HLA-B*07:02 (setting [4]) was 1.14 µM; with HLA-B*35:01 (setting [4]) it was no less than 69.9 µM; with HLA-B*51:01 (setting [4]), no less than 10 µM; with HLA-B*53:01 (setting [4]) it was no less than 69.9 µM; in the experiment with HLA-B*54:01 (setting [4]) it was no less than 69.9 µM.

Regarding SPTEMVDVSM, the Kd was 0.122 µM with HLA-B*07:02 (setting [4]); 0.0372 µM in the experiment with HLA-B*35:01 (setting [4]); no less than 69.6 µM with HLA-B*51:01 (setting [4]); 1.94 µM in the experiment with HLA-B*53:01 (setting [4]); no less than 42.7 µM in the experiment with HLA-B*54:01 (setting [4]).

In the experiment with HLA-A*03:01 (source organism: Giardia lamblia ATCC 50803), RCYPGYTLK registered a Kd of 0.0623 µM.

Consider DPDHYKDYA, for which the Kd is 14.8 µM with HLA-B*07:02 (setting [4]); no less than 77.4 µM with HLA-B*35:01 (setting [4]); no less than 22.5 µM with HLA-B*51:01 (setting [4]); no less than 75.5 µM with HLA-B*53:01 (setting [4]); 7.01 µM with HLA-B*54:01 (setting [4]).

On to EWAFWENKK, for which the IC50 with HLA-A*02:01 (setting [5]) was no less than 183 µM; with HLA-A*11:01 (setting [5]), 10.8 µM; in the experiment with HLA-A*24:02 [2], 15.3 µM.

Sequence GEWAFWETK returned an IC50 with HLA-A*11:01 (setting [3]) of 58 µM.

As for LLYDGSFAV, the Kd in the experiment with HLA-A*02:03 was no more than 0.001 µM; with HLA-A*02:11 (source organism: Mycobacterium tuberculosis str. Haarlem) it was no more than 0.001 µM; with HLA-A*02:12, 0.002 µM; with HLA-A*69:01, 0.0043 µM.

APAICHEGKA: the Kd was 2.01 µM with HLA-B*07:02 (setting [6]); no less than 53.5 µM with HLA-B*35:01 (setting [6]); no less than 43 µM in the experiment with HLA-B*51:01 (setting [6]); 17.3 µM in the experiment with HLA-B*53:01 (setting [6]); 1.47 µM in the experiment with HLA-B*54:01 (setting [6]).

NPTNISKCF: the Kd in the experiment with HLA-B*07:02 (setting [7]) amounted to 8.66 µM; with HLA-B*35:01 (setting [7]) it was 0.199 µM; with HLA-B*51:01 (setting [7]), 5.74 µM; in the experiment with HLA-B*53:01 (setting [7]), 0.0777 µM; in the experiment with HLA-B*54:01 (setting [7]), 3.47 µM.

On to PPLISILMIF, for which the Kd with HLA-B*07:02 (setting [4]) turned out to be 0.27 µM; with HLA-B*35:01 (setting [4]) it was 0.761 µM; with HLA-B*51:01 (setting [4]), 2.02 µM; with HLA-B*53:01 (setting [4]) it was 0.497 µM; with HLA-B*54:01 (setting [4]) it was 3.12 µM.

Source of the values: the Immune Epitope Database (IEDB).
